{"source": "patent US20070218502A1", "about": "(Scripps Research, published 2007)", "binders": {"B1": {"name": "tetramethylrhodamine-labeled leucine zipper peptide (SEQ ID NO:15) with YGRKKRRNRRRP (SEQ ID NO:17) appended to the N-terminus, as used in the in vitro … (peptide)", "peptide": "YGRKKRRNRRRPCEMAQLEKEVQALESEVASLEKEVQALEKEVAQR-NH2", "modifications": "not fully specified", "notes": "Peptide derived from the GCN4 leucine zipper; also called labeled peptide; TMRPep"}, "B2": {"name": "rhodamine-labeled peptide (SEQ ID NO:15, tetramethylrhodamine on Lys 21), as microinjected into cells (peptide)", "peptide": "CEMAQLEKEVQALESEVASLEKEVQALEKEVAQR-NH2", "modifications": "also: tetramethylrhodamine on Lys stated as position 21, which does not match a Lys in the given chain", "notes": "also called rhodamine peptide biosensor; rhodamine-peptide"}, "B3": {"name": "mero-CBD-F271C conjugate (Cdc42-binding fragment of human WASP, amino acids 201 to 321, F271C, labeled with merocyanine dye) (other)", "chain": "DIQNPDITSSRYRGLPAPGPSPADKKRSGKKKISKADIGAPSGFKHVSHVGWDPQNGFDVNNLDPDLRSLCSRAGISEAQLTDAETSKLIYDFIEDQGGLEAVRQEMRRQEPLPPPPPPSR", "modifications": "merocyanine dye of FIG. 11 on Cys 271 (WASP numbering)", "notes": "that entry has 120 residues and ends at WASP 320; also called CBD-A4C; CBD biosensor; not shown: C-terminal 6His tag from pET23a"}}, "key": {"[1]": {"target": "T1, peptide tag (SEQ ID NO:16), unlabeled synthetic peptide (C-terminal amide)", "T1 construct": "Short peptide tag derived from the leucine zipper of the GCN4 transcription factor; also called protein tag peptide; unlabeled peptide", "T1 peptide": "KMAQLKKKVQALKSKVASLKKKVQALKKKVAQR", "test": "equilibrium fluorescence titration"}, "[2]": {"target": "T1, peptide tag (SEQ ID NO:16), unlabeled …", "test": "equilibrium fluorescence anisotropy titration, 12.52 nM labeled peptide, 0.1x PBS, 25° C., 1:1 binding fit"}, "[3]": {"target": "T2, human high affinity IgE receptor (FcεRI) α-chain with the NOVA-2 peptide tag at the C-terminus, expressed in … (human, UniProt P12319 26-257)", "T2 construct": "whole, on cells; Retained in the endoplasmic reticulum membrane of the cells; also called peptide-tagged FcεRI α-chain; NOVA2-tagged α-chain", "T2 sequence": "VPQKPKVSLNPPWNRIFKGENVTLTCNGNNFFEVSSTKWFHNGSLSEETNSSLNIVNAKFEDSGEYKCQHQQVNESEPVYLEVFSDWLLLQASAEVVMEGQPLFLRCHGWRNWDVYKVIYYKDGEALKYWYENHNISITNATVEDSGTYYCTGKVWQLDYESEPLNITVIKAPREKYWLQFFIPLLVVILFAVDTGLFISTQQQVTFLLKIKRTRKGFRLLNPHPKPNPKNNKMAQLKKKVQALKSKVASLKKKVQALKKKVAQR", "test": "fluorescence imaging in live Cos-7 cells after microinjection"}, "[4]": {"target": "T3, cdc42-GTPγS (recombinant 6His-tagged cdc42 loaded with GTPγS) (UniProt P60953 1-191, limits assumed)", "T3 construct": "not shown: 6His tag", "T3 sequence (P60953 whole entry)": "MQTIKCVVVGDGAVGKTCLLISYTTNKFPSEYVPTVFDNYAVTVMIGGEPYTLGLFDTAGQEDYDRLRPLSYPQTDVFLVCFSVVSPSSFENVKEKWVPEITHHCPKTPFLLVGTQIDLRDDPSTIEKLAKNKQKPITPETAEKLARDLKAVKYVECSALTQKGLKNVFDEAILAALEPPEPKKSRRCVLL", "test": "fluorescence of dye-labeled CBD in solution"}, "[5]": {"target": "T3, cdc42-GTPγS (recombinant 6His-tagged …)", "test": "fluorescence of mero-CBD with saturating cdc42-GTPγS"}, "[6]": {"target": "T4, RhoA-GTPγS (recombinant 6His-tagged RhoA pre-equilibrated with GTPγS) (UniProt P61586 1-193, limits assumed)", "T4 construct": "not shown: 6His tag", "T4 sequence (P61586 whole entry)": "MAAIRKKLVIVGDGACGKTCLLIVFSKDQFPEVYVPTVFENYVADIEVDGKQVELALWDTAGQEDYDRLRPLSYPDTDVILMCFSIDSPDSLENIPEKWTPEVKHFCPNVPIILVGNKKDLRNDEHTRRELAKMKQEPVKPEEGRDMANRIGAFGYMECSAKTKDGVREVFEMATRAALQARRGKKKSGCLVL", "test": "fluorescence of mero-CBD in solution"}}, "note": "Ends that are not written are not given here."}
{"binder": "B1", "values": [{"measurement": "Kd", "setting": "[1]", "result": 5, "unit": "nM"}, {"measurement": "Kd", "setting": "[2]", "result": 5.4, "unit": "nM"}]}
{"binder": "B2", "values": [{"measurement": "binding result", "setting": "[3]", "result": "binds"}]}
{"binder": "B3", "values": [{"measurement": "fold fluorescence change on binding", "setting": "[4]", "result": "~3.5", "unit": "fold"}, {"measurement": "fold increase in excitation and emission maxima", "setting": "[5]", "result": "~3.5", "unit": "fold"}, {"measurement": "binding result", "setting": "[6]", "result": "no binding"}]}
